# Measurements published in the Immune Epitope Database (IEDB).
# Key:
# HLA-C*03:03 = assay: IEDB peptide-MHC binding, purified MHC/direct/fluorescence; filed as Kd, often an IC50 or EC50 that approximates it; ≥ and ≤ were set here for values at or beyond the usual limits of such assays
# HLA-C*04:01 = assay: as above
# HLA-C*12:03 = assay: as above
# HLA-B*46:01 [1] = assay: IEDB peptide-MHC binding, purified MHC/competitive/fluorescence; filed as Kd, often an IC50 or EC50 that approximates it; ≥ and ≤ were set here for values at or beyond the usual limits of such assays; settings: source organism: Escherichia coli 536
# HLA-C*06:02 = assay: IEDB peptide-MHC binding, purified MHC/direct/fluorescence; filed as Kd, often an IC50 or EC50 that approximates it; ≥ and ≤ were set here for values at or beyond the usual limits of such assays; settings: source organism: Influenza A virus (A/swine/Italy/1509-6/97(H1N1))
# HLA-C*14:02 = assay: as above; settings: source organism: Influenza A virus (A/swine/Italy/1509-6/97(H1N1))
# HLA-B*07:02 = assay: IEDB peptide-MHC binding, purified MHC/competitive/fluorescence; filed as Kd, often an IC50 or EC50 that approximates it; ≥ and ≤ were set here for values at or beyond the usual limits of such assays; settings: source organism: Influenza A virus (A/swine/Italy/1509-6/97(H1N1))
# HLA-C*08:02 = assay: IEDB peptide-MHC binding, purified MHC/direct/fluorescence; filed as Kd, often an IC50 or EC50 that approximates it; ≥ and ≤ were set here for values at or beyond the usual limits of such assays
# HLA-A*29:02 = assay: IEDB peptide-MHC binding, purified MHC/competitive/fluorescence; filed as Kd, often an IC50 or EC50 that approximates it; ≥ and ≤ were set here for values at or beyond the usual limits of such assays; settings: source organism: Bacillus anthracis str. A0488
# HLA-A*24:03 = assay: IEDB peptide-MHC binding, purified MHC/direct/fluorescence; filed as Kd, often an IC50 or EC50 that approximates it; ≥ and ≤ were set here for values at or beyond the usual limits of such assays; settings: source organism: Mycobacterium tuberculosis
# HLA-A*01:01 = assay: as above; settings: source organism: Bacillus anthracis
# HLA-A*02:01 = assay: as above; settings: source organism: Bacillus anthracis
# HLA-A*03:01 = assay: as above; settings: source organism: Bacillus anthracis
# HLA-A*31:01 = assay: as above; settings: source organism: Bacillus anthracis
# HLA-A*69:01 = assay: as above
# HLA-B*15:01 = assay: as above; settings: source organism: Bacillus anthracis
# HLA-B*15:17 = assay: as above; settings: source organism: Bacillus anthracis
# HLA-B*18:01 = assay: as above; settings: source organism: Bacillus anthracis
# HLA-B*40:01 = assay: as above; settings: source organism: Bacillus anthracis
# HLA-B*46:01 [2] = assay: as above; settings: source organism: Bacillus anthracis
# HLA-B*48:01 = assay: as above; settings: source organism: Bacillus anthracis
# HLA-B*51:01 = assay: as above; settings: source organism: Bacillus anthracis
# HLA-B*57:01 = assay: as above; settings: source organism: Bacillus anthracis
# HLA-B*58:01 = assay: as above; settings: source organism: Bacillus anthracis
# HLA-A*11:01 = assay: IEDB peptide-MHC binding, purified MHC/competitive/fluorescence; filed as Kd, often an IC50 or EC50 that approximates it; ≥ and ≤ were set here for values at or beyond the usual limits of such assays; settings: source organism: Escherichia coli APEC O1
# HLA-B*27:05 = assay: as above; settings: source organism: Escherichia coli APEC O1
# HLA-A*26:01 = assay: IEDB peptide-MHC binding, purified MHC/direct/fluorescence; filed as Kd, often an IC50 or EC50 that approximates it; ≥ and ≤ were set here for values at or beyond the usual limits of such assays; settings: source organism: Influenza A virus (A/chicken/Beijing/nl/2002(H9N2))
# HLA-A*26:02 = assay: as above; settings: source organism: Influenza A virus(A/swine/Shandong/fNY/2003(H9N2))
# HLA-C*05:01 = assay: as above; settings: source organism: Variola virus
# HLA-A*02:02 = assay: IEDB peptide-MHC binding, purified MHC/competitive/radioactivity; filed as Kd, often an IC50 or EC50 that approximates it; ≥ and ≤ were set here for values at or beyond the usual limits of such assays; settings: source organism: Vaccinia virus WR
# HLA-A*02:03 = assay: as above; settings: source organism: Vaccinia virus WR
# HLA-A*02:06 = assay: as above; settings: source organism: Vaccinia virus WR
# [3] = source organism: Escherichia coli 536
# [4] = source organism: Yellow fever virus
sequence,measurement,setting,value
FMFDSDEAM,Kd,HLA-C*03:03; [3],5 nM
same,Kd,HLA-C*04:01; [3],≥ 20000 nM
same,Kd,HLA-C*12:03; [3],174 nM
same,Kd,HLA-B*46:01 [1],29.2 nM
ATYQRTRAL,Kd,HLA-C*06:02,75 nM
same,Kd,HLA-C*14:02,246 nM
same,Kd,HLA-B*07:02,197 nM
YTVQGAGLM,Kd,HLA-C*08:02; source organism: Bacillus anthracis str. A0488,≥ 20000 nM
same,Kd,HLA-A*29:02,26 nM
YYIIETEHL,Kd,HLA-A*24:03,0.2 nM
same,Kd,HLA-C*04:01; source organism: Mycobacterium tuberculosis H37Ra,≥ 20000 nM
TPRIANRLL,Kd,HLA-A*01:01,≥ 20000 nM
same,Kd,HLA-A*02:01,≥ 20000 nM
same,Kd,HLA-A*03:01,≥ 20000 nM
same,Kd,HLA-A*31:01,≥ 20000 nM
same,Kd,HLA-A*69:01; source organism: Bacillus anthracis,≥ 20000 nM
same,Kd,HLA-B*15:01,≥ 20000 nM
same,Kd,HLA-B*15:17,≥ 20000 nM
same,Kd,HLA-B*18:01,≥ 20000 nM
same,Kd,HLA-B*40:01,≥ 20000 nM
same,Kd,HLA-B*46:01 [2],≥ 20000 nM
same,Kd,HLA-B*48:01,≥ 20000 nM
same,Kd,HLA-B*51:01,≥ 20000 nM
same,Kd,HLA-B*57:01,≥ 20000 nM
same,Kd,HLA-B*58:01,≥ 20000 nM
same,Kd,HLA-A*11:01,1370 nM
same,Kd,HLA-B*27:05,≥ 20000 nM
YMPDVLEKL,Kd,HLA-C*03:03; [4],≥ 20000 nM
same,Kd,HLA-C*08:02; [4],≥ 20000 nM
same,Kd,HLA-C*12:03; [4],≥ 20000 nM
TTVDHMAII,Kd,HLA-A*26:01,67.8 nM
same,Kd,HLA-A*26:02,12 nM
KVDDTFYYV,Kd,HLA-A*69:01; source organism: Camelpox virus CMS,2 nM
same,Kd,HLA-C*03:03; source organism: Variola virus,≥ 20000 nM
same,Kd,HLA-C*05:01,3 nM
same,Kd,HLA-A*02:02,1850 nM
same,Kd,HLA-A*02:03,≥ 78100 nM
same,Kd,HLA-A*02:06,≥ 34300 nM
